From the supplement of paper PMC9732359
± gives the uncertainty stated by the source.

Experiment: protein stability index of a GFP-peptide fusion (yeast GPS) (PSI 1-4); higher = more stable; sorted into four equal gates, so the index is relative within each strain
Procedure, shortened: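 The protein stability index of a peptide was calculated by multiplying its read frequency in each gate by that gate's number and adding the products. The peptides were tiled 17-residue stretches of yeast proteins, fused downstream of GFP on a Cherry-expressing plasmid and carried in yeast as a pooled library. Mid-log cultures in leucine-free medium were sorted into four equal gates by GFP/Cherry ratio, and each gate's plasmids were PCR-amplified and Illumina-sequenced.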

EWQDIIHQREQELQIKR [CSE2]
protein stability index (pdr5∆): 3.5 ± 0.17
protein stability index (san1∆): 3.29 ± 0.26
protein stability index (ubr1∆): 3.13 ± 0.23

NATVVDSFKYEPLAPGN [YLR335W/NUP2]
protein stability index (doa10∆): 2.95 ± 0.057
protein stability index (pdr5∆): 3.02 ± 0.054
protein stability index (san1∆): 2.98 ± 0.053
protein stability index (ubr1∆): 2.94 ± 0.051

VENGTTSIGIKCNDGVV [PRE10]
protein stability index (doa10∆): 2.14 ± 0.11
protein stability index (pdr5∆): 2.1 ± 0.089
protein stability index (san1∆): 1.35 ± 0.21
protein stability index (ubr1∆): 3.31 ± 0.22

MSDLFTFDWFIKTRTVH [ISW2]
protein stability index (doa10∆): 2.88 ± 0.099
protein stability index (pdr5∆): 3.17 ± 0.099
protein stability index (san1∆): 2.76 ± 0.093
protein stability index (ubr1∆): 3.21 ± 0.072

EKKDDNSSKPAFSFGAK [YJL041W/NSP1]
protein stability index (doa10∆): 2.3 ± 0.054
protein stability index (pdr5∆): 1.86 ± 0.039
protein stability index (san1∆): 2.02 ± 0.06
protein stability index (ubr1∆): 2.25 ± 0.037

RRKTTKQNSSSDINQND [YDL088C/ASM4]
protein stability index (doa10∆): 3.16 ± 0.096
protein stability index (pdr5∆): 3.15 ± 0.098
protein stability index (san1∆): 2.96 ± 0.083
protein stability index (ubr1∆): 2.95 ± 0.059

QLYFQKNGAQDLVLQIL [RRI2]
protein stability index (doa10∆): 2.6 ± 0.12
protein stability index (pdr5∆): 2.81 ± 0.12
protein stability index (san1∆): 2.32 ± 0.097
protein stability index (ubr1∆): 2.62 ± 0.048

EKVNNNATLTPNDSNDE [SWI1]
protein stability index (doa10∆): 3.26 ± 0.07
protein stability index (pdr5∆): 3.14 ± 0.057
protein stability index (san1∆): 3.11 ± 0.063
protein stability index (ubr1∆): 3.16 ± 0.047

VLKVYSMINNSNQAVGQ [SRB8]
protein stability index (doa10∆): 2.85 ± 0.07
protein stability index (pdr5∆): 2.78 ± 0.065
protein stability index (san1∆): 2.83 ± 0.067
protein stability index (ubr1∆): 2.63 ± 0.051

CEAAVEISKKDFVRKGG [SIR3]
protein stability index (doa10∆): 3.19 ± 0.11
protein stability index (pdr5∆): 2.9 ± 0.065
protein stability index (san1∆): 3.22 ± 0.068
protein stability index (ubr1∆): 3.25 ± 0.064

GGLKSCDLDFPLRENTN [YDL116W/NUP84]
protein stability index (doa10∆): 2.59 ± 0.058
protein stability index (pdr5∆): 2.29 ± 0.059
protein stability index (san1∆): 2.25 ± 0.077
protein stability index (ubr1∆): 2.2 ± 0.057

QQGQNMSEQQWREQLRN [ROX3]
protein stability index (doa10∆): 2.55 ± 0.071
protein stability index (pdr5∆): 2.48 ± 0.055
protein stability index (san1∆): 2.42 ± 0.086
protein stability index (ubr1∆): 2.23 ± 0.032

YSLEAIKLGSTAIGIAT [PUP2]
protein stability index (doa10∆): 1.54 ± 0.066
protein stability index (pdr5∆): 1.79 ± 0.08
protein stability index (san1∆): 1.43 ± 0.15
protein stability index (ubr1∆): 1.32 ± 0.069

DTFGEGIIITDQSNVQY [BRR2]
protein stability index (doa10∆): 3.11 ± 0.17
protein stability index (pdr5∆): 3.21 ± 0.13
protein stability index (san1∆): 2.79 ± 0.1
protein stability index (ubr1∆): 2.94 ± 0.093

EEIPINSSEQESDYEPN [SIR3]
protein stability index (doa10∆): 2.82 ± 0.068
protein stability index (pdr5∆): 3.15 ± 0.067
protein stability index (san1∆): 3 ± 0.045
protein stability index (ubr1∆): 2.77 ± 0.048

FREWQYFKLSITSFDQD [POP8]
protein stability index (doa10∆): 1.94 ± 0.052
protein stability index (pdr5∆): 2.53 ± 0.06
protein stability index (san1∆): 2.52 ± 0.061
protein stability index (ubr1∆): 2.51 ± 0.045

DGGLFTLFVRDQDSAVV [QCR2]
protein stability index (doa10∆): 3.04 ± 0.11
protein stability index (pdr5∆): 3.16 ± 0.078
protein stability index (san1∆): 3.25 ± 0.059
protein stability index (ubr1∆): 3.32 ± 0.057

DDFLSKKRKAGRPRGRP [SNF2]
protein stability index (doa10∆): 3.25 ± 0.3
protein stability index (pdr5∆): 3.1 ± 0.12
protein stability index (san1∆): 2.96 ± 0.2
protein stability index (ubr1∆): 2.89 ± 0.1

ILGIHTSKMNLSEDVNL [RPT2]
protein stability index (doa10∆): 3.03 ± 0.12
protein stability index (pdr5∆): 3.16 ± 0.081
protein stability index (san1∆): 3 ± 0.13
protein stability index (ubr1∆): 3.14 ± 0.067

VFLFDIEKVDRENMICK [RRI2]
protein stability index (doa10∆): 3.17 ± 0.17
protein stability index (pdr5∆): 3.24 ± 0.14
protein stability index (san1∆): 2.88 ± 0.19
protein stability index (ubr1∆): 3.29 ± 0.12

PIRINSTEEIEYIELEY [YMR129W/POM152]
protein stability index (doa10∆): 2.45 ± 0.095
protein stability index (pdr5∆): 3.04 ± 0.09
protein stability index (san1∆): 2.68 ± 0.091
protein stability index (ubr1∆): 2.82 ± 0.039

ELLAYQFASPVRWIETQ [FAS2]
protein stability index (doa10∆): 1.77 ± 0.021
protein stability index (pdr5∆): 1.86 ± 0.019
protein stability index (san1∆): 1.92 ± 0.027
protein stability index (ubr1∆): 1.728 ± 0.016

SDKESNAYGFIEWCSRC [YJL039C/NUP192]
protein stability index (doa10∆): 2.98 ± 0.066
protein stability index (pdr5∆): 2.79 ± 0.067
protein stability index (san1∆): 2.97 ± 0.053
protein stability index (ubr1∆): 2.73 ± 0.063

PLHLIFAQPVADIENST [SSN2]
protein stability index (doa10∆): 2.67 ± 0.078
protein stability index (pdr5∆): 2.51 ± 0.097
protein stability index (san1∆): 2.72 ± 0.13
protein stability index (ubr1∆): 2.67 ± 0.1

MDETQTRAKIGGLNDPR [RPO21]
protein stability index (doa10∆): 2.8 ± 0.1
protein stability index (pdr5∆): 2.24 ± 0.11
protein stability index (san1∆): 2.3 ± 0.1
protein stability index (ubr1∆): 1.85 ± 0.22

MLMPKQERNKIHQYLFQ [RPS10B]
protein stability index (doa10∆): 2.76 ± 0.29
protein stability index (pdr5∆): 2.88 ± 0.17
protein stability index (san1∆): 2.89 ± 0.14
protein stability index (ubr1∆): 2.78 ± 0.1

LSKVSLLTPDIGAVYSG [PRE8]
protein stability index (doa10∆): 1.68 ± 0.055
protein stability index (pdr5∆): 1.99 ± 0.073
protein stability index (san1∆): 1.73 ± 0.09
protein stability index (ubr1∆): 2.07 ± 0.071

DEEMLTSCTIPKAVVDH [GAL11]
protein stability index (doa10∆): 2.94 ± 0.085
protein stability index (pdr5∆): 2.77 ± 0.076
protein stability index (san1∆): 2.44 ± 0.12
protein stability index (ubr1∆): 2.9 ± 0.076

SKDGLPNKVKTEDIRIR [RRP6]
protein stability index (doa10∆): 2.67 ± 0.063
protein stability index (pdr5∆): 2.91 ± 0.076
protein stability index (san1∆): 2.76 ± 0.067
protein stability index (ubr1∆): 2.73 ± 0.046

KFNKSKAKFTSLAVRSL [YCS4]
protein stability index (doa10∆): 2.09 ± 0.065
protein stability index (pdr5∆): 2.01 ± 0.056
protein stability index (san1∆): 1.96 ± 0.067
protein stability index (ubr1∆): 1.8 ± 0.039

AKNETNSESDSKSDSDS [ITC1]
protein stability index (doa10∆): 3.01 ± 0.05
protein stability index (pdr5∆): 3.03 ± 0.049
protein stability index (san1∆): 3.09 ± 0.047
protein stability index (ubr1∆): 2.88 ± 0.042

TPEYAAEKVKVRDELRK [UBP6]
protein stability index (doa10∆): 1.28 ± 0.068
protein stability index (pdr5∆): 1.61 ± 0.083
protein stability index (san1∆): 1.42 ± 0.14
protein stability index (ubr1∆): 1.46 ± 0.07

EKYGKQVYDLLKRFPKM [BRR2]
protein stability index (san1∆): 2.99 ± 0.19
protein stability index (ubr1∆): 3.31 ± 0.14

LKWVAVVPDLGHLNGHT [SSN2]
protein stability index (doa10∆): 3.12 ± 0.07
protein stability index (pdr5∆): 3.13 ± 0.058
protein stability index (san1∆): 3.1 ± 0.048
protein stability index (ubr1∆): 3.16 ± 0.054

SRLTLLLRALKTNEESA [PRP8]
protein stability index (doa10∆): 1.91 ± 0.056
protein stability index (pdr5∆): 1.58 ± 0.058
protein stability index (san1∆): 1.84 ± 0.09
protein stability index (ubr1∆): 1.97 ± 0.044

LPDELTLSYDDISAAIV [DLS1]
protein stability index (doa10∆): 2.56 ± 0.055
protein stability index (pdr5∆): 2.53 ± 0.061
protein stability index (san1∆): 2.58 ± 0.073
protein stability index (ubr1∆): 2.67 ± 0.05

DTTVPKRLGPKRANNIR [RPS6A]
protein stability index (doa10∆): 3.46 ± 0.11
protein stability index (pdr5∆): 3.68 ± 0.11
protein stability index (san1∆): 3.19 ± 0.051
protein stability index (ubr1∆): 3.37 ± 0.063

KDNAKISNNLALVFAAL [SRP68]
protein stability index (doa10∆): 2.24 ± 0.051
protein stability index (pdr5∆): 1.86 ± 0.038
protein stability index (san1∆): 1.97 ± 0.066
protein stability index (ubr1∆): 2.17 ± 0.04

DVSPLRRVNQAIALLTI [RPS5]
protein stability index (doa10∆): 2.07 ± 0.065
protein stability index (pdr5∆): 2.05 ± 0.077
protein stability index (san1∆): 1.85 ± 0.15
protein stability index (ubr1∆): 1.47 ± 0.055
